What was measured:
[1] = target: T1, SUMO-tagged WIPI3^Δ (human WIPI3 residues 8–344 without residues 264–281) (human, UniProt Q5MNZ6 8-344, without residues 264–281); experiment: SEC; purified proteins alone and mixed, Superdex 200 Increase 10/300 GL or Superdex 75 10/300 GL on an AKTA FPLC; mixture profile compared with the theoretical sum; fractions checked by SDS-PAGE; settings: both partners purified
T1 construct: WIPI3, human, residues 8–344 with residues 264–281 removed; the WIPI3(75–80) region is retained; also called SUMO-WIPI3^Δ; loop-truncated WIPI3; source: E. coli BL21 (DE3), purified (Ni-NTA, Superdex 200); not shown: SUMO, N-terminal, kept
T1 sequence (Q5MNZ6 other isoform, or with tags, fused parts or gaps without residues 264–281 | without residues 264–281 | mutant): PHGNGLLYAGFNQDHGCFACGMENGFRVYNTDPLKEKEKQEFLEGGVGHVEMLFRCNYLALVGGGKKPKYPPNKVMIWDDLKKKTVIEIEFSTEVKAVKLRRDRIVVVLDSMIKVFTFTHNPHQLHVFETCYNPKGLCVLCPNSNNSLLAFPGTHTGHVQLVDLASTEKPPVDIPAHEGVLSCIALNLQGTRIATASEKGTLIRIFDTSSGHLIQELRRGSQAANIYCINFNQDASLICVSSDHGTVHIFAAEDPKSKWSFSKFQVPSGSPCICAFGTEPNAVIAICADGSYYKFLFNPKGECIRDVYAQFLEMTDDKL

GST-tagged WIPI3Δ = target: T2, GST-tagged WIPI3Δ (human, UniProt Q5MNZ6 8-344, without residues 264–281); experiment: SEC; competition: a pre-formed complex incubated with an increasing molar ratio of the competitor, then SEC; fractions analysed by SDS-PAGE with Coomassie staining; settings: both partners purified
T2 construct: WIPI3, human, residues 8–344 with residues 264–281 removed; also called GST-WIPI3Δ; source: E. coli BL21 (DE3), purified (Ni-NTA, Superdex 200); not shown: GST, N-terminal, kept
T2 sequence (Q5MNZ6 other isoform, or with tags, fused parts or gaps without residues 264–281 | without residues 264–281 | mutant): as above

Binder	binding result [1]	binding result (GST-tagged WIPI3Δ)
ATG16L1(78–247) (domain or fragment, human, UniProt Q676U5 78-247, looked up, Legends name it without Trx (while ATG2A is named Trx-ATG2A), so the tag may have been cleaved; also called central region of ATG16L1; source: E. coli BL21 (DE3), purified (Ni-NTA, Superdex 200)) NDNQLQEMAQLRIKHQEELTELHKKRGELAQLVIDLNNQMQRKDREMQMNEAKIAECLQTISDLETECLDLRTKLCDLERANQTLKDEYDALQITFTALEGKLRKTTEENQELVTRWMAEKAQEANRLNAENEKDSRRRQARLQKELAEAAKEPLPVEQDDDIEVIVDET	binds	
ATG16L1(78–206) (domain or fragment, human, UniProt Q676U5 78-206, looked up, Legends name it without Trx; source: E. coli BL21 (DE3), purified (Ni-NTA, Superdex 200)) NDNQLQEMAQLRIKHQEELTELHKKRGELAQLVIDLNNQMQRKDREMQMNEAKIAECLQTISDLETECLDLRTKLCDLERANQTLKDEYDALQITFTALEGKLRKTTEENQELVTRWMAEKAQEANRLN	binds	binds
ATG16L1(78–197) (domain or fragment, human, UniProt Q676U5 78-197, looked up, source: E. coli BL21 (DE3), purified (Ni-NTA, Superdex 200)) NDNQLQEMAQLRIKHQEELTELHKKRGELAQLVIDLNNQMQRKDREMQMNEAKIAECLQTISDLETECLDLRTKLCDLERANQTLKDEYDALQITFTALEGKLRKTTEENQELVTRWMAE	binds	
ATG16L1(124–197) (domain or fragment, human, UniProt Q676U5 124-197, looked up, source: E. coli BL21 (DE3), purified (Ni-NTA, Superdex 200)) MQMNEAKIAECLQTISDLETECLDLRTKLCDLERANQTLKDEYDALQITFTALEGKLRKTTEENQELVTRWMAE	binds	
ATG16L1(124–188) (domain or fragment, human, UniProt Q676U5 124-188, looked up, Parallel coiled-coil dimer in the crystal; also called ATG16L1 coiled-coil; source: E. coli BL21 (DE3), purified (Ni-NTA, Superdex 200)) MQMNEAKIAECLQTISDLETECLDLRTKLCDLERANQTLKDEYDALQITFTALEGKLRKTTEENQ	binds	
